Results from patent publication US20200317768A1 (published 2020).

T1: cynomolgus monkey FcγRIIa3 extracellular domain with C-terminal His-tag (cynomolgus monkey)
T1 construct: also called cyno FcgRIIa3; cynoFcγRIIa3
T1 chain: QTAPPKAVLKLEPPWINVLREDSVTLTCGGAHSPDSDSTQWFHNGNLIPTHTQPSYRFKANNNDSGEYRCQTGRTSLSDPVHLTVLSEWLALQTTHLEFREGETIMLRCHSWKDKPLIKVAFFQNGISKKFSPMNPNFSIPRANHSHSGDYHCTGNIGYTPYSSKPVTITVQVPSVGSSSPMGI


How the values were obtained:
[1] = target: T2, human FcγRIIIaV extracellular domain with C-terminal His-tag (human, UniProt P08637 17-208); experiment: SPR (BIACORE), antibody captured, FcgR analyte
T2 construct: also called human FcgRIIIaV
T2 sequence (P08637 17-208 F176V): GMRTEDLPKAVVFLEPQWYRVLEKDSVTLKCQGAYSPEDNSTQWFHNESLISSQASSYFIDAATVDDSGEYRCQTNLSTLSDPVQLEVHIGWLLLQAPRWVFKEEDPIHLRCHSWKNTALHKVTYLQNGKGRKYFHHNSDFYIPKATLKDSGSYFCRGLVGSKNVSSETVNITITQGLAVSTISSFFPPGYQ

[2] = target: T1, cynomolgus monkey FcγRIIa3 …; experiment: SPR (BIACORE), antibody captured, FcgR analyte

| Kd [1] | Kd [2] | Binder |
| --- | --- | --- |
| 25 µM | 51 µM | M103205H795-MY342/M103202L889-SK1 (antibody, human IgG1, kappa, Substitutions introduced into M103205H795-SG1, expressed with M103202L889-SK1 as light chain; EU numbering) heavy: QVTLKESGPVLVKPTETLTLTCTVSGIDLSHDDISWVRQAPGKGLEWVGIISYAGSTYYASWAKGRLTISKDTSKNQVVLTMTNMDPVDTATYYCARGVPAYSHGGDLWGQGTLVTVSSASTKGPSVFPLAPSSKSTSGGTAALGCLVKDYFPEPVTVSWNSGALTSGVHTFPAVLQSSGLYSLSSVVTVPSSSLGTQTYICNVNHKPSNTKVDKKVEPKSCDKTHTCPPCPAPELLLGPSVFLFPPKPKDTLMISRTPEVTCVVVDVSDEDPEVKFNWYVDGVEVHNAKTKPREELYNSTYRVVSVLTVLHQDWLNGKEYKCKVSNKALPKPIEKTISKAKGQPREPQVYTLPPSREEMTKNQVSLTCLVKGFYPSDIAVEWESNGQPENNYKTTPMVLDSDGSFFLYSKLTVDKSRWQQGNVFSCSVMHEALHNHYTQKSLSLSP light: DIVMTQSPATLSLSPGERATLSCTSSQSVYHANWLSWFQQKPGQPPKLLIYWASTLAYGVPSRFSGSGSGTDFTLTISSLQPEDAATYYCAGGYGGGRYAFGQGTKVEIKRTVAAPSVFIFPPSDEQLKSGTASVVCLLNNFYPREAKVQWKVDNALQSGNSQESVTEQDSKDSTYSLSSTLTLSKADYEKHKVYACEVTHQGLSSPVTKSFNRGEC |
| 24 µM | 16 µM | M103205H795-MY386/M103202L889-SK1 (antibody, human IgG1, kappa, Substitutions introduced into M103205H795-SG1, expressed with M103202L889-SK1 as light chain; EU numbering) heavy: QVTLKESGPVLVKPTETLTLTCTVSGIDLSHDDISWVRQAPGKGLEWVGIISYAGSTYYASWAKGRLTISKDTSKNQVVLTMTNMDPVDTATYYCARGVPAYSHGGDLWGQGTLVTVSSASTKGPSVFPLAPSSKSTSGGTAALGCLVKDYFPEPVTVSWNSGALTSGVHTFPAVLQSSGLYSLSSVVTVPSSSLGTQTYICNVNHKPSNTKVDKKVEPKSCDKTHTCPPCPAPELLLGPSVFLFPPKPKDTLMISRTPEVTCVVVDVSDEDPEVKFNWYVDGVEVHNAKTKPREELYNSTYRVVSVLTVLHQDWLNGKEYKCKVSNTALPKPIEKTISKAKGQPREPQVYTLPPSREEMTKNQVSLTCLVKGFYPSDIAVEWESNGQPENNYKTTPPVLDSDGSFFLYSKLTVDKSRWQQGNVFSCSVMHEALHNHYTQKSLSLSP light: DIVMTQSPATLSLSPGERATLSCTSSQSVYHANWLSWFQQKPGQPPKLLIYWASTLAYGVPSRFSGSGSGTDFTLTISSLQPEDAATYYCAGGYGGGRYAFGQGTKVEIKRTVAAPSVFIFPPSDEQLKSGTASVVCLLNNFYPREAKVQWKVDNALQSGNSQESVTEQDSKDSTYSLSSTLTLSKADYEKHKVYACEVTHQGLSSPVTKSFNRGEC |
| 10 µM | 3.3 µM | M103205H795-MY380/M103202L889-SK1 (antibody, human IgG1, kappa, Substitutions introduced into M103205H795-SG1, expressed with M103202L889-SK1 as light chain; EU numbering) heavy: QVTLKESGPVLVKPTETLTLTCTVSGIDLSHDDISWVRQAPGKGLEWVGIISYAGSTYYASWAKGRLTISKDTSKNQVVLTMTNMDPVDTATYYCARGVPAYSHGGDLWGQGTLVTVSSASTKGPSVFPLAPSSKSTSGGTAALGCLVKDYFPEPVTVSWNSGALTSGVHTFPAVLQSSGLYSLSSVVTVPSSSLGTQTYICNVNHKPSNTKVDKKVEPKSCDKTHTCPPCPAPELLNGPSVFLFPPKPKDTLMISRTPEVTCVVVDVSEEDPEVKFNWYVDGVEVHNAKTKPREEQYNSTYRVVSVLTVLHQDWLNGKEYKCKVSNKALPKPIEKTISKAKGQPREPQVYTLPPSREEMTKNQVSLTCLVKGFYPSDIAVEWESNGQPENNYKTTPKVLDSDGSFFLYSKLTVDKSRWQQGNVFSCSVMHEALHNHYTQKSLSLSP light: DIVMTQSPATLSLSPGERATLSCTSSQSVYHANWLSWFQQKPGQPPKLLIYWASTLAYGVPSRFSGSGSGTDFTLTISSLQPEDAATYYCAGGYGGGRYAFGQGTKVEIKRTVAAPSVFIFPPSDEQLKSGTASVVCLLNNFYPREAKVQWKVDNALQSGNSQESVTEQDSKDSTYSLSSTLTLSKADYEKHKVYACEVTHQGLSSPVTKSFNRGEC |

The remaining lines, values behind:

| Binder | Kd [1] | Kd [2] |
| --- | --- | --- |
| M103205H795-MY209/M103202L889-SK1 (antibody, human IgG1, kappa, Substitutions introduced into M103205H795-SG1, expressed with M103202L889-SK1 as light chain; EU numbering) heavy: QVTLKESGPVLVKPTETLTLTCTVSGIDLSHDDISWVRQAPGKGLEWVGIISYAGSTYYASWAKGRLTISKDTSKNQVVLTMTNMDPVDTATYYCARGVPAYSHGGDLWGQGTLVTVSSASTKGPSVFPLAPSSKSTSGGTAALGCLVKDYFPEPVTVSWNSGALTSGVHTFPAVLQSSGLYSLSSVVTVPSSSLGTQTYICNVNHKPSNTKVDKKVEPKSCDKTHTCPPCPAPELLNGPSVFLFPPKPKDTLMISRTPEVTCVVVDVSDEDPEVKFNWYVDGVEVHNAKTKPREELYNSTYRVVSVLTVLHQDWLNGKEYKCKVSNTALPKPIEKTISKAKGQPREPQVYTLPPSREEMTKNQVSLTCLVKGFYPSDIAVEWESNGQPENNYKTTPPVLDSDGSFFLYSKLTVDKSRWQQGNVFSCSVMHEALHNHYTQKSLSLSP light: DIVMTQSPATLSLSPGERATLSCTSSQSVYHANWLSWFQQKPGQPPKLLIYWASTLAYGVPSRFSGSGSGTDFTLTISSLQPEDAATYYCAGGYGGGRYAFGQGTKVEIKRTVAAPSVFIFPPSDEQLKSGTASVVCLLNNFYPREAKVQWKVDNALQSGNSQESVTEQDSKDSTYSLSSTLTLSKADYEKHKVYACEVTHQGLSSPVTKSFNRGEC | 14 µM | 1.9 µM |
| M103205H795-MY341/M103202L889-SK1 (antibody, human IgG1, kappa, Substitutions introduced into M103205H795-SG1, expressed with M103202L889-SK1 as light chain; EU numbering) heavy: QVTLKESGPVLVKPTETLTLTCTVSGIDLSHDDISWVRQAPGKGLEWVGIISYAGSTYYASWAKGRLTISKDTSKNQVVLTMTNMDPVDTATYYCARGVPAYSHGGDLWGQGTLVTVSSASTKGPSVFPLAPSSKSTSGGTAALGCLVKDYFPEPVTVSWNSGALTSGVHTFPAVLQSSGLYSLSSVVTVPSSSLGTQTYICNVNHKPSNTKVDKKVEPKSCDKTHTCPPCPAPELLLGPSVFLFPPKPKDTLMISRTPEVTCVVVDVSDEDPEVKFNWYVDGVEVHNAKTKPREELYNSTYRVVSVLTVLHQDWLNGKEYKCKVSNTALPKPIEKTISKAKGQPREPQVYTLPPSREEMTKNQVSLTCLVKGFYPSDIAVEWESNGQPENNYKTTPKVLDSDGSFFLYSKLTVDKSRWQQGNVFSCSVMHEALHNHYTQKSLSLSP light: DIVMTQSPATLSLSPGERATLSCTSSQSVYHANWLSWFQQKPGQPPKLLIYWASTLAYGVPSRFSGSGSGTDFTLTISSLQPEDAATYYCAGGYGGGRYAFGQGTKVEIKRTVAAPSVFIFPPSDEQLKSGTASVVCLLNNFYPREAKVQWKVDNALQSGNSQESVTEQDSKDSTYSLSSTLTLSKADYEKHKVYACEVTHQGLSSPVTKSFNRGEC | 7 µM | 8.8 µM |
| M103205H795-MY340/M103202L889-SK1 (antibody, human IgG1, kappa, Substitutions introduced into M103205H795-SG1, expressed with M103202L889-SK1 as light chain; EU numbering) heavy: QVTLKESGPVLVKPTETLTLTCTVSGIDLSHDDISWVRQAPGKGLEWVGIISYAGSTYYASWAKGRLTISKDTSKNQVVLTMTNMDPVDTATYYCARGVPAYSHGGDLWGQGTLVTVSSASTKGPSVFPLAPSSKSTSGGTAALGCLVKDYFPEPVTVSWNSGALTSGVHTFPAVLQSSGLYSLSSVVTVPSSSLGTQTYICNVNHKPSNTKVDKKVEPKSCDKTHTCPPCPAPELLLGPSVFLFPPKPKDTLMISRTPEVTCVVVDVSDEDPEVKFNWYVDGVEVHNAKTKPREELYNSTYRVVSVLTVLHQDWLNGKEYKCKVSNKALPKPIEKTISKAKGQPREPQVYTLPPSREEMTKNQVSLTCLVKGFYPSDIAVEWESNGQPENNYKTTPKVLDSDGSFFLYSKLTVDKSRWQQGNVFSCSVMHEALHNHYTQKSLSLSP light: DIVMTQSPATLSLSPGERATLSCTSSQSVYHANWLSWFQQKPGQPPKLLIYWASTLAYGVPSRFSGSGSGTDFTLTISSLQPEDAATYYCAGGYGGGRYAFGQGTKVEIKRTVAAPSVFIFPPSDEQLKSGTASVVCLLNNFYPREAKVQWKVDNALQSGNSQESVTEQDSKDSTYSLSSTLTLSKADYEKHKVYACEVTHQGLSSPVTKSFNRGEC | 17 µM | 23 µM |
| M103205H795-MY283/M103202L889-SK1 (antibody, human IgG1, kappa, Substitutions introduced into M103205H795-SG1, expressed with M103202L889-SK1 as light chain; EU numbering) heavy: QVTLKESGPVLVKPTETLTLTCTVSGIDLSHDDISWVRQAPGKGLEWVGIISYAGSTYYASWAKGRLTISKDTSKNQVVLTMTNMDPVDTATYYCARGVPAYSHGGDLWGQGTLVTVSSASTKGPSVFPLAPSSKSTSGGTAALGCLVKDYFPEPVTVSWNSGALTSGVHTFPAVLQSSGLYSLSSVVTVPSSSLGTQTYICNVNHKPSNTKVDKKVEPKSCDKTHTCPPCPAPELLTGPSVFLFPPKPKDTLMISRTPEVTCVVVDVSDEDPEVKFNWYVDGVEVHNAKTKPREELYNSTYRVVSVLTVLHQDWLNGKEYKCKVSNKALPKPIEKTISKAKGQPREPQVYTLPPSREEMTKNQVSLTCLVKGFYPSDIAVEWESNGQPENNYKTTPPVLDSDGSFFLYSKLTVDKSRWQQGNVFSCSVMHEALHNHYTQKSLSLSP light: DIVMTQSPATLSLSPGERATLSCTSSQSVYHANWLSWFQQKPGQPPKLLIYWASTLAYGVPSRFSGSGSGTDFTLTISSLQPEDAATYYCAGGYGGGRYAFGQGTKVEIKRTVAAPSVFIFPPSDEQLKSGTASVVCLLNNFYPREAKVQWKVDNALQSGNSQESVTEQDSKDSTYSLSSTLTLSKADYEKHKVYACEVTHQGLSSPVTKSFNRGEC | 5.7 µM | 4.4 µM |
| M103205H795-MY339/M103202L889-SK1 (antibody, human IgG1, kappa, Substitutions introduced into M103205H795-SG1, expressed with M103202L889-SK1 as light chain; EU numbering) heavy: QVTLKESGPVLVKPTETLTLTCTVSGIDLSHDDISWVRQAPGKGLEWVGIISYAGSTYYASWAKGRLTISKDTSKNQVVLTMTNMDPVDTATYYCARGVPAYSHGGDLWGQGTLVTVSSASTKGPSVFPLAPSSKSTSGGTAALGCLVKDYFPEPVTVSWNSGALTSGVHTFPAVLQSSGLYSLSSVVTVPSSSLGTQTYICNVNHKPSNTKVDKKVEPKSCDKTHTCPPCPAPELLLGPSVFLFPPKPKDTLMISRTPEVTCVVVDVSDEDPEVKFNWYVDGVEVHNAKTKPREEQYNSTYRVVSVLTVLHQDWLNGKEYKCKVSNTALPKPIEKTISKAKGQPREPQVYTLPPSREEMTKNQVSLTCLVKGFYPSDIAVEWESNGQPENNYKTTPKVLDSDGSFFLYSKLTVDKSRWQQGNVFSCSVMHEALHNHYTQKSLSLSP light: DIVMTQSPATLSLSPGERATLSCTSSQSVYHANWLSWFQQKPGQPPKLLIYWASTLAYGVPSRFSGSGSGTDFTLTISSLQPEDAATYYCAGGYGGGRYAFGQGTKVEIKRTVAAPSVFIFPPSDEQLKSGTASVVCLLNNFYPREAKVQWKVDNALQSGNSQESVTEQDSKDSTYSLSSTLTLSKADYEKHKVYACEVTHQGLSSPVTKSFNRGEC | 5.6 µM | 3.8 µM |
